# Measured values reported in patent US20230322953A1 (HARBOUR BIOMED SHANGHAI, published 2023).
# Positions count from the first letter of the chain named.
# B1: PR002895 (bispecific antibody, human IgG1, lambda, L234A L235A)
# light: QAVVTQEPSLTVSPGGTVTLTCRSSTGAVTTSNYANWVQQKPGQAPRGLIGGTNKRAPWTPARFSGSLLGDKAALTLLGAQPEDEAEYFCALWYSNLWVFGGGTKLTVLGQPKAAPSVTLFPPSSEELQANKATLVCLISDFYPGAVTVAWKADSSPVKAGVETTTPSKQSNNKYAASSYLSLTPEQWKSHRSYSCQVTHEGSTVEKTVAPTECS
# heavy: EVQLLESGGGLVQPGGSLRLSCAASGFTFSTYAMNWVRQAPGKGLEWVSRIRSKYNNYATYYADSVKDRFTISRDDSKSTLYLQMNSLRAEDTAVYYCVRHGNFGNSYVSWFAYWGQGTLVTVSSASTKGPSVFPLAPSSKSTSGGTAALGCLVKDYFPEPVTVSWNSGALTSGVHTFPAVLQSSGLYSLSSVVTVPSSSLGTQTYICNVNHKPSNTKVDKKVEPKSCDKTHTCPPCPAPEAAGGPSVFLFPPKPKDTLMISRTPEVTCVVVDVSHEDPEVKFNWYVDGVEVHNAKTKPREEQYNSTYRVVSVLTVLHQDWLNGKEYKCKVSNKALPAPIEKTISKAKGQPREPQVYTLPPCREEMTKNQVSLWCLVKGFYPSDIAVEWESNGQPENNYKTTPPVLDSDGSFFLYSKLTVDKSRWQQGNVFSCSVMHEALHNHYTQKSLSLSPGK
# chain: EVQLVETGGGLIQPGGSLRLSCAASGFTVSDNYMTWVRQAPGKGLEWVSVIFSGGNTYYADSVKGRFTISRDNAKNTLYLQMNSLRAEDTALYYCARRNYDDTRGTDVFDIWGQGTMVTVSSGGGGSGGGGSGGGGSEVQLVETGGGLIQPGGSLRLSCAASGFTVSDNYMTWVRQAPGKGLEWVSVIFSGGNTYYADSVKGRFTISRDNAKNTLYLQMNSLRAEDTALYYCARRNYDDTRGTDVFDIWGQGTMVTVSSASEPKSSDKTHTCPPCPAPEAAGGPSVFLFPPKPKDTLMISRTPEVTCVVVDVSHEDPEVKFNWYVDGVEVHNAKTKPREEQYNSTYRVVSVLTVLHQDWLNGKEYKCKVSNKALPAPIEKTISKAKGQPREPQVCTLPPSREEMTKNQVSLSCAVKGFYPSDIAVEWESNGQPENNYKTTPPVLDSDGSFFLVSKLTVDKSRWQQGNVFSCSVMHEALHNHYTQKSLSLSPGK
# B2: PR002953 (bispecific antibody, human IgG1, lambda, L234A L235A)
# light: B1 light
# heavy: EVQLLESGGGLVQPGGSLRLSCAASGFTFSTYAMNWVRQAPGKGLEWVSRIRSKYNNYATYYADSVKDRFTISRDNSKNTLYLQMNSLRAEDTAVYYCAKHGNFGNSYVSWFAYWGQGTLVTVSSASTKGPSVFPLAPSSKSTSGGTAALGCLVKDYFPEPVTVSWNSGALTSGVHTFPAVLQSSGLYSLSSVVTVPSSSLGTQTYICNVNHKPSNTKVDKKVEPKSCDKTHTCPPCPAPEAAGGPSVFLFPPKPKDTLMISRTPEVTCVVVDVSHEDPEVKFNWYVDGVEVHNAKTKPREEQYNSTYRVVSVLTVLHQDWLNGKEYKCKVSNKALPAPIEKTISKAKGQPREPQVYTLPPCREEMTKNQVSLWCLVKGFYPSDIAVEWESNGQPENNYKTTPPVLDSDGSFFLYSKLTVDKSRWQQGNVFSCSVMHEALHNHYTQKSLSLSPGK
# chain: B1 chain
# B3: PR003178 (bispecific antibody, human IgG1, lambda, L234A L235A)
# light: B1 light
# heavy: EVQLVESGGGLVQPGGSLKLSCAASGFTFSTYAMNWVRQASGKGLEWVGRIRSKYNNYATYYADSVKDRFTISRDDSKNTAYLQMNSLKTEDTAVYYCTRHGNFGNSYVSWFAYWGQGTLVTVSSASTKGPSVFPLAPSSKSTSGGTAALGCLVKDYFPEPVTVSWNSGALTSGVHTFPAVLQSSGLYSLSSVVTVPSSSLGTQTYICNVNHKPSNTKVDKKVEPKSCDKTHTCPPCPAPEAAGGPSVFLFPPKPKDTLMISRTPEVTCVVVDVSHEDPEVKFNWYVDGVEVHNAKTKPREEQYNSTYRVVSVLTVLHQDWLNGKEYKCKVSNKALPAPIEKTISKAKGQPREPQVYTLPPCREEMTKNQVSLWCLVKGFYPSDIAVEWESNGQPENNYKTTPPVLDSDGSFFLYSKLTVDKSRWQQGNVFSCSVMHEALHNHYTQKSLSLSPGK
# chain: B1 chain
# B4: PR002929 (bispecific antibody, human IgG1, lambda, L234A L235A)
# light: B1 light
# heavy: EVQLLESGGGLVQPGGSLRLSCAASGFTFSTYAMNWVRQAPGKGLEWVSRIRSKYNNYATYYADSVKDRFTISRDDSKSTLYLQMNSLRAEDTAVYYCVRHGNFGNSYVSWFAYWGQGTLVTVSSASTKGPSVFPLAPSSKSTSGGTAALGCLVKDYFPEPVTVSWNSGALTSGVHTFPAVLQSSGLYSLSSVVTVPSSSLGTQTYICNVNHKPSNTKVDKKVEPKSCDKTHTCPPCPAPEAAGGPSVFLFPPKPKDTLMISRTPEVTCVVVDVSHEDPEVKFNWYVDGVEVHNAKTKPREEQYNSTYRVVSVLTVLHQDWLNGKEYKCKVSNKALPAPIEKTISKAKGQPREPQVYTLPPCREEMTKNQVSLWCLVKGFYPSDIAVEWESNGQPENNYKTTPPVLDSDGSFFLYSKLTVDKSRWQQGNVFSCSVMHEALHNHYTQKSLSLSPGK
# chain: EVQLVETGGGLIQPGGSLRLSCAASGFTVSDNYMTWVRQAPGKGLEWVSVIFSGGNTYYADSVKGRFTISRDNAKNTLYLQMNSLRAEDTALYYCARRNYDDTRGTDVFDIWGQGTMVTVSSASEPKSSDKTHTCPPCPAPEAAGGPSVFLFPPKPKDTLMISRTPEVTCVVVDVSHEDPEVKFNWYVDGVEVHNAKTKPREEQYNSTYRVVSVLTVLHQDWLNGKEYKCKVSNKALPAPIEKTISKAKGQPREPQVCTLPPSREEMTKNQVSLSCAVKGFYPSDIAVEWESNGQPENNYKTTPPVLDSDGSFFLVSKLTVDKSRWQQGNVFSCSVMHEALHNHYTQKSLSLSPGK
# B5: PR000260, anti-CD3 monoclonal antibody SP34 (hIgG1 chimeric antibody) (antibody, V domains shown)
# VH: EVQLVESGGGLVQPKGSLKLSCAASGFTFNTYAMNWVRQAPGKGLEWVARIRSKYNNYATYYADSVKDRFTISRDDSQSILYLQMNNLKTEDTAMYYCVRHGNFGNSYVSWFAYWGQGTLVTVSA
# VL: QAVVTQESALTTSPGETVTLTCRSSTGAVTTSNYANWVQEKPDHLFTGLIGGTNKRAPGVPARFSGSLIGDKAALTITGAQTEDEAIYFCALWYSNLWVFGGGTKLTVLG
# B6: PR002002 (bispecific antibody, IgG1)
# chain 1: QAVVTQEPSLTVSPGGTVTLTCRSSTGAVTTSNYANWVQQKPGQAPRGLIGGTNKRAPWTPARFSGSLLGDKAALTLLGAQPEDEAEYFCALWYSNLWVFGGGTKLTVLGGGQSGQGGSGGGGSEVQLVESGGGLVQPGGSLKLSCAASGFTFNTYAMNWVRQASGKGLEWVGRIRSKYNNYATYYADSVKDRFTISRDDSKSTLYLQMNSLKTEDTAVYYCVRHGNFGNSYVSWFAYWGQGTLVTVSSASEPKSSDKTHTCPPCPAPEAAGGPSVFLFPPKPKDTLMISRTPEVTCVVVDVSHEDPEVKFNWYVDGVEVHNAKTKPREEQYNSTYRVVSVLTVLHQDWLNGKEYKCKVSNKALGAPIEKTISKAKGQPREPQVYTLPPCREEMTKNQVSLWCLVKGFYPSDIAVEWESNGQPENNYKTTPPVLDSDGSFFLYSKLTVDKSRWQQGNVFSCSVMHEALHNHYTQKSLSLSPGK
# chain 2: B4 chain with P238G
# notes: Structure 20 (scFv(VL-VH)-Fc-VH): CD3 scFv from PR000510, BCMA VH from PR001046; IgG1 knob/hole, AAG
# B7: PR002000 (bispecific antibody, IgG1)
# chain 1: B6 chain 1
# chain 2: EVQLVETGGGLIQPGGSLRLSCAASGFPVSSNYMSWVRQAPGKGLEWVSVIFSGGRTYYADSVKGRFTISRDNSKNTLYLQMNSLRAEDTAVYYCARRNWIDGRDAFDIWGQGTMVTVSSASEPKSSDKTHTCPPCPAPEAAGGPSVFLFPPKPKDTLMISRTPEVTCVVVDVSHEDPEVKFNWYVDGVEVHNAKTKPREEQYNSTYRVVSVLTVLHQDWLNGKEYKCKVSNKALGAPIEKTISKAKGQPREPQVCTLPPSREEMTKNQVSLSCAVKGFYPSDIAVEWESNGQPENNYKTTPPVLDSDGSFFLVSKLTVDKSRWQQGNVFSCSVMHEALHNHYTQKSLSLSPGK
# notes: Structure 20 (scFv(VL-VH)-Fc-VH): CD3 scFv from PR000510, BCMA VH from PR000943; IgG1 knob/hole, AAG
# B8: PR001046, anti-BCMA HCAb antibody (clone 1005P63B7) (antibody, human IgG1, V domains shown)
# VH: EVQLVETGGGLIQPGGSLRLSCAASGFTVSDNYMTWVRQAPGKGLEWVSVIFSGGNTYYADSVKGRFTISRDNAKNTLYLQMNSLRAEDTALYYCARRNYDDTRGTDVFDIWGQGTMVTVSS
# B9: PR000274, anti-BCMA monoclonal antibody CA8-J6M0 (antibody, human IgG1, kappa, V domains shown)
# VH: QVQLVQSGAEVKKPGSSVKVSCKASGGTFSNYWMHWVRQAPGQGLEWMGATYRGHSDTYYNQKFKGRVTITADKSTSTAYMELSSLRSEDTAVYYCARGAIYDGYDVLDNWGQGTLVTVSS
# VL: DIQMTQSPSSLSASVGDRVTITCSASQDISNYLNWYQQKPGKAPKLLIYYTSNLHSGVPSRFSGSGSGTDFTLTISSLQPEDFATYYCQQYRKLPWTFGQGTKLEIKR
# notes: also called Positive control 1; CA8-J6M0 hIgG1
# Biological target: T1, human BCMA on NCI-H929 cells (ATCC, CRL-9068) (human, UniProt Q02223 1-184)
# T1 sequence (looked up): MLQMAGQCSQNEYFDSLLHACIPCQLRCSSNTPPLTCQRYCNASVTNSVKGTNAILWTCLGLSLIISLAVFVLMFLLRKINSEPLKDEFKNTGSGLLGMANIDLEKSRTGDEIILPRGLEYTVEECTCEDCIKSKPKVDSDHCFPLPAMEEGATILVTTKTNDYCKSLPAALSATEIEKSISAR
# Experiment: cell-based or functional assay
Binder,"IFN-γ release, EC50","IFN-γ release, Maximum","IL-2 release, EC50","IL-2 release, Maximum","IL-6 release, EC50","IL-6 release, Maximum","IL-10 release, EC50","IL-10 release, Maximum","NCI-H929 killing, EC50","NCI-H929 killing, Maximum killing rate %"
B1,0.0223 nM,1440 pg/mL,0.0211 nM,100 pg/mL,0.00839 nM,118 pg/mL,0.0134 nM,240 pg/mL,0.00293 nM,57.9%
B2,0.212 nM,640 pg/mL,0.795 nM,23.6 pg/mL,0.128 nM,68.5 pg/mL,0.208 nM,129 pg/mL,0.047 nM,57.5%
B3,0.0595 nM,1210 pg/mL,0.175 nM,101 pg/mL,0.0448 nM,89.7 pg/mL,0.104 nM,322 pg/mL,0.0102 nM,56.8%

# Same assay, conditions: not given
Binder,"TNF-α release, EC50","TNF-α release, Maximum"
B1,0.00818 nM,1280 pg/mL
B2,0.197 nM,894 pg/mL
B3,0.0281 nM,1330 pg/mL

# Biological target: T1, human BCMA on NCI-H929 cells (ATCC, …)
# Experiment: cell-based or functional assay
# Remark: another data set of the same source
Binder,"Killing EC50 (nM), PBMC + NCI-H929, + 10 ng/mL sBAFF","Killing EC50 (nM), PBMC + NCI-H929, + 10 ng/ml sAPRIL","Killing EC50 (nM), PBMC + NCI-H929, + 100 ng/mL sAPRIL","Killing EC50 (nM), PBMC + NCI-H929, + 100 ng/mL sBAFF","Killing EC50 (nM), PBMC + NCI-H929, no soluble ligand"
B3,0.005 nM,0.009 nM,0.011 nM,0.008 nM,0.007 nM

# Biological target: T1, human BCMA on NCI-H929 cells (ATCC, …)
# Experiment: cell-based or functional assay
# Remark: another data set of the same source
Binder,"Killing EC50 (nM), PBMC + NCI-H929, + 62.5 ng/ml sBCMA","Killing EC50 (nM), PBMC + NCI-H929, + 125 ng/mL sBCMA","Killing EC50 (nM), PBMC + NCI-H929, + 250 ng/ml sBCMA","Killing EC50 (nM), PBMC + NCI-H929, + 500 ng/ml sBCMA","Killing EC50 (nM), PBMC + NCI-H929, no sBCMA"
B3,0.009 nM,0.014 nM,0.065 nM,0.12 nM,0.005 nM

# Biological target: T2, cynomolgus monkey CD3 (TCR/CD3 complex) on cynomolgus monkey T cells (cynomolgus monkey)
# T2 construct: whole, on cells
# Experiment: flow cytometry (FACS) on cynomolgus monkey T cells
# T2 sequence (Q95LI5 22-198, one chain of several): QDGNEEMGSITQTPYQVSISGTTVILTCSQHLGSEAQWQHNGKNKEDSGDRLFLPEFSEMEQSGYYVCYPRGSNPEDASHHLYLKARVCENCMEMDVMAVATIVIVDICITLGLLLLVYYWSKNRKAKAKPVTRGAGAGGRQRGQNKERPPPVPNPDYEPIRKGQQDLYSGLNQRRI
row,Binder,Maximum MFI
1,B4,10100 MFI
2,B1,18600 MFI
3,B2,9710 MFI
4,B3,10700 MFI

# Biological target: T3, human CD3 (TCR/CD3 complex) on human T cells (human, UniProt P07766 23-207)
# T3 construct: whole, on cells
# Experiment: flow cytometry (FACS) on human T cells, Experiment 1
# T3 sequence (P07766 23-207, one chain of several): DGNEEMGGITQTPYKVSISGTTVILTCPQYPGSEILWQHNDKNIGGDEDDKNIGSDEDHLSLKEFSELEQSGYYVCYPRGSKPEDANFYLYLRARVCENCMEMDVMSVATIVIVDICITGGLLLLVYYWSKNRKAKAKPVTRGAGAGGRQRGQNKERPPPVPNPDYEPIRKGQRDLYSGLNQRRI
row,Binder,Maximum MFI
1,B5,7160 MFI

# Biological target: T3, human CD3 (TCR/CD3 complex) on human T …
# Experiment: flow cytometry (FACS) on human T cells, Experiment 2
row,Binder,Maximum MFI
1,B6,1120 MFI
2,B7,1730 MFI
3,B5,6030 MFI

# Biological target: T3, human CD3 (TCR/CD3 complex) on human T …
# Experiment: flow cytometry (FACS) on human T cells, Experiment 3
row,Binder,Maximum MFI
1,B4,283000 MFI
2,B1,322000 MFI
3,B2,17000 MFI
4,B3,23900 MFI

# Biological target: T4, cynomolgus monkey BCMA (ACRO Biosystems, #BCA-C82F4) (cynomolgus monkey, UniProt A0A2K5UD97 1-53)
# T4 construct: Bought protein; also called cyBCMA.Fc
# Experiment: BLI (Octet Red96e), cyBCMA.Fc on SA sensor, 1:1 global fitting
# T4 sequence (A0A2K5UD97 entry or part of it): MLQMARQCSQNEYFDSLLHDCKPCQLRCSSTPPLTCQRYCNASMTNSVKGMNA
Binder,Kd,koff,kon
B8,0.119 nM,7.54e-05 s⁻¹,633000 M⁻¹ s⁻¹
B4,6.62 nM,0.00582 s⁻¹,879000 M⁻¹ s⁻¹
B1,0.272 nM,0.000242 s⁻¹,890000 M⁻¹ s⁻¹
B2,0.195 nM,7.12e-05 s⁻¹,365000 M⁻¹ s⁻¹
B3,0.319 nM,0.000262 s⁻¹,822000 M⁻¹ s⁻¹
B9,0.0388 nM,7.76e-06 s⁻¹,200000 M⁻¹ s⁻¹

# Biological target: T4, cynomolgus monkey BCMA (ACRO …)
# Experiment: BLI; KD for cynomolgus monkey BCMA divided by KD for human BCMA
row,Binder,KD ratio (cy BCMA/hu BCMA)
1,B8,1.54
2,B4,1.11
3,B1,1.38
4,B2,0.87
5,B3,1.35
6,B9,0.06

# Biological target: T5, biotinylated human BCMA-Fc, Avitag recombinant protein (ACRO Biosystems, #BC7-H82F0) (human, UniProt Q02223 1-54, biotinylated (Avitag))
# T5 construct: extracellular domain; Bought protein; also called huBCMA.Fc; recombinant human BCMA-ECD-Fc
# T5 sequence (looked up): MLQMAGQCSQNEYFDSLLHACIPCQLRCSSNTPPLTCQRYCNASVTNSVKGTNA
# Experiment: BLI (Octet Red96e), biotinylated BCMA-Fc on SA sensor, 1:1 global fitting;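 note: Anti-BCMA antibodies analysed as binding partners of the captured BCMA antigen, with reference signals removed by double referencing before kinetic fitting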
Binder,Kd,koff,kon
B8,0.0775 nM,3.56e-05 s⁻¹,459000 M⁻¹ s⁻¹
B4,5.95 nM,0.00148 s⁻¹,249000 M⁻¹ s⁻¹
B1,0.197 nM,8.11e-05 s⁻¹,412000 M⁻¹ s⁻¹
B2,0.225 nM,0.000107 s⁻¹,474000 M⁻¹ s⁻¹
B3,0.236 nM,0.000117 s⁻¹,494000 M⁻¹ s⁻¹
B9,0.655 nM,0.000135 s⁻¹,206000 M⁻¹ s⁻¹
